Columns and labels:
[1] = molecular target: Recombinant His-tagged WIP1ΔEx6 (UniProt O15297)
[2] = molecular target: Recombinant His-tagged WIP1ΔEx6 (UniProt O15297); remark: listed apart in the source

Chain of GST-Tax (P03409 whole entry): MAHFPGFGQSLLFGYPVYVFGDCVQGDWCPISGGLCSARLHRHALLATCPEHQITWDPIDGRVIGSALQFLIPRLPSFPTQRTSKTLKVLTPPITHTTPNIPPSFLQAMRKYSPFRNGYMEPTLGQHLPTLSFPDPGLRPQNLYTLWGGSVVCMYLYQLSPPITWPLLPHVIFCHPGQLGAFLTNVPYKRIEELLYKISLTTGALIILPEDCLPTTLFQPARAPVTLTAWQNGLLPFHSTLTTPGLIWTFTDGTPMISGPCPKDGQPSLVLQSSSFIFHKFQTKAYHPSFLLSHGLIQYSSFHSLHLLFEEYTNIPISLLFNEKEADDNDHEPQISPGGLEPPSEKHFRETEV

## GST-Tax (from UniProt P03409 1-353) (natural protein)
[1]
  in vitro phosphatase assay: free phosphate released from the H2AX (pS139) phosphopeptide by His-WIP1 (20 ng) with GST-Tax (100 ng), against His-WIP1 alone or with GST: 2 fold
[2]
  in vitro phosphatase assay: free phosphate released from the p38 (pT180) phosphopeptide by His-WIP1 with GST-Tax, against His-WIP1 alone: 2 fold
